The text below walks through data of publication PMC6450106.

By stoichiometry N is commonly meant the number of molecules, sites or subunits per partner or assembly.

The target in this test is CAP256 gp140-FL-IP (soluble Env) (HIV-1 (CAP256 SU, subtype C)). As to the kind of experiment: native gel or EMSA; NativePAGE Novex 3 to 12% bis-Tris gels, Coomassie stain or anti-gp120 blot, molecular weight against NativeMark standard; protein after GNL affinity and SEC (Superdex 200 HiLoad 16/600). For orientation: Mobility shift assays separate free from complexed probe on a gel.

“CAP256 gp140-FL-IP (soluble Env) (domain or fragment)” showed a stoichiometry N of 3.
